This test has as its target Biotinylated SARS-CoV-2 S protein RBD with a C-terminal AviTag (SARS-CoV-2) (UniProt P0DTC2). Nature of the test: BLI. (Biolayer interferometry detects binding as a change in optical thickness at a sensor tip.)

NIH-CoVnb-112 (VHH), sequence (VHH): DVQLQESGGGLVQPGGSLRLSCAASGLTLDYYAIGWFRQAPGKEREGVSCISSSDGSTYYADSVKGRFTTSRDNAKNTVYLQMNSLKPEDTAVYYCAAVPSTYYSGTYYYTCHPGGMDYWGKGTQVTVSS

NIH-CoVnb-112 (VHH): the Kd (in general, the constant that tells how readily two partners part at equilibrium) worked out at 4.9 nM; the off-rate (koff) (usually a measure of how fast the partners let go of each other) was 0.000654 s⁻¹; the kon (as a rule, a measure of how fast the partners come together) is 130000 M⁻¹ s⁻¹.
